Here are results for 2 molecules from patent US20100076177A1 (published 2010).

For one assay, the target named is T1, hDC-SIGN (human, UniProt Q9NNX6 60-404).
T1 chain: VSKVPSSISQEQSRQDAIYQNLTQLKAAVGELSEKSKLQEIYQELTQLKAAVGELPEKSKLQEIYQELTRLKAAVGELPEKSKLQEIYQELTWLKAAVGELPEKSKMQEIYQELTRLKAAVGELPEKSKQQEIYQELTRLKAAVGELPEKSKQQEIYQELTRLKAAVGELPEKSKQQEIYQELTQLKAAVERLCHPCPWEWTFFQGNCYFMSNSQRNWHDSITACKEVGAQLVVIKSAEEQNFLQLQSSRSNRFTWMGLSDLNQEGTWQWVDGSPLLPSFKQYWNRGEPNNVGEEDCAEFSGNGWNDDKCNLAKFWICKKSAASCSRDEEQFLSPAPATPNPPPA
Put plainly: BIAcore 3000.

In assay [1] the target is mannan-binding lectin (MBL) (human, UniProt P11226 21-248). The assay can be described thus: BIAcore 3000. On the technique in general: SPR reads the build-up and loss of mass on a sensor chip optically.
Chain of mannan-binding lectin (MBL) (P11226 21-248): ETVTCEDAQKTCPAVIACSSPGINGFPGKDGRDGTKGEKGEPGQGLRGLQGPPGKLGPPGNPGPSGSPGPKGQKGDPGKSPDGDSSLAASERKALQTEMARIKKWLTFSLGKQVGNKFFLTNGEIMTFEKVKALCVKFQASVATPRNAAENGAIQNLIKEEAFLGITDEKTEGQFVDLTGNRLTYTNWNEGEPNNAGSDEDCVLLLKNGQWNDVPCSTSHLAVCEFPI

B1: AZN-D1, murine monoclonal antibody directed to h-DC-SIGN (the "initial antibody" of Example 2) (antibody, V domains shown)
VH: QVQLQQSGPQSVRPGASVKISCKASGYSFTSYWMGWVKQRPGQGLEWIGMIDPFDSESRLNQEFKDKATLTVDKSSSTVYMQLSSPTSEDSAIYYCVRRNGGYYVFDSWGQGTTLTVSS
VL: DVLMTQSPLSLPVSLGDKASISCRSSQNIVHSNGDTYLEWYLQRPGQSPKLLIFKVSNRFSGVPDRFSGSGSGTDFILKISRVEAEDLGVYYCFQGSHVPWTFGGGTKLEIK
In the assay with hDC-SIGN, B1 showed an equilibrium dissociation constant (Kd) of 3.88 nM.

B2: murine monoclonal antibody directed to human mannose binding lectin (the "initial antibody" of Example 1) (antibody, V domains shown)
VH: VQLQESGPGLVKPSQSLSLTCTVTGYSITSDYAWNWIRQFPGNKLEWMGYISYSGSTSYNPSLKSRVSITRDTSKNQFFLQLNSVTTEDTATYYCARWESWFAYWGQGTLVTVSA
VL: DIVLTQSPATLSVTPGDSVSLSCRASQSISNDLHWYQQKSHESPRLLIKYASQSISGIPSRFSGSGSGTDFTLSINSVETEDFGMYFCQQSNSWPYTFGGGTKLEIK
Consider B2, for which the Kd in assay [1] worked out at 1.24 nM.

A word on the Kd: it is the equilibrium constant for the complex coming apart.
